This is an account of results in article PMC11194072, “Cdc13 exhibits dynamic DNA strand exchange in the presence of telomeric DNA”.

One may read the IC50 as the midpoint of a concentration-inhibition curve.

In series [1] the target is T1, Cdc13 full-length (Sf9) (Saccharomyces cerevisiae, UniProt P32797 1-924).
T1 sequence: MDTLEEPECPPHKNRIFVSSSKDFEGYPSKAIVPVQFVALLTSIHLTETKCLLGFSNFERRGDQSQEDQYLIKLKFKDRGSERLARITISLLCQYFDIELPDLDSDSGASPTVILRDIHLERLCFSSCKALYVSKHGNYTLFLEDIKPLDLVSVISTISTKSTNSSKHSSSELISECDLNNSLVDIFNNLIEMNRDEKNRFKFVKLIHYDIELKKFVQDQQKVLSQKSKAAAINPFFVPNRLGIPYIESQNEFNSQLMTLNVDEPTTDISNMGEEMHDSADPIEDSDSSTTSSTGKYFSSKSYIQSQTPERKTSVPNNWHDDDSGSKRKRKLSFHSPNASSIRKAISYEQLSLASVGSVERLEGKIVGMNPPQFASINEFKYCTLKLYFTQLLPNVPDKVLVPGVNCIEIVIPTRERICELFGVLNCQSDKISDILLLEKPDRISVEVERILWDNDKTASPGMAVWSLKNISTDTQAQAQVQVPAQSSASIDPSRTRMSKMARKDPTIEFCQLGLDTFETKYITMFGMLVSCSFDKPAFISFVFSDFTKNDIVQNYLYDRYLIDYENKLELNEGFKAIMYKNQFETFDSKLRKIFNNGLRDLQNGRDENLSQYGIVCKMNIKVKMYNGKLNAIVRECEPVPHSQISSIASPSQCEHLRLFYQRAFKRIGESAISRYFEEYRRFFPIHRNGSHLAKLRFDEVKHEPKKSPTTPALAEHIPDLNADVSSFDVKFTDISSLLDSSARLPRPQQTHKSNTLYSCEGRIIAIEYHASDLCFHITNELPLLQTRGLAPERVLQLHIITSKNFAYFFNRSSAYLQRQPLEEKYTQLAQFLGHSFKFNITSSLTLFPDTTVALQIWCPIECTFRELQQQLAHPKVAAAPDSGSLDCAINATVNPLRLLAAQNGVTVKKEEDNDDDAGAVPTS
Briefly: EMSA; IR700-Tel50G prebound; 25 mM HEPES pH 8.0, 5% glycerol, 50 mM NaOAc, 150 mM NaCl, 7.5 mM MgCl2, 0.01% Tween 20; EMSA/DDE at 30°C; BLI without glycerol at ~23°C. The settings on record: protein: recombinant; tags: N-terminal SUMO-His6 tag, C-terminal FLAG tag; chain copies: 2; label: 5' IRDye700; single strand. For orientation: A gel shift assay detects complexes by their altered migration in electrophoresis.

The target of series [2] is T2, RPA heterotrimer (Rfa1-3) (Saccharomyces cerevisiae, UniProt P22336;P26754;P26755 1-621;1-273;1-122). In words: EMSA; 2 nM fork; 25 mM HEPES pH 8.0, 5% glycerol, 50 mM NaOAc, 150 mM NaCl, 7.5 mM MgCl2, 0.01% Tween 20; EMSA/DDE at 30°C; BLI without glycerol at ~23°C. The settings on record: protein: recombinant; tags: untagged; copies: 1;1;1; fork 1:2, 20 bp duplex, two 25-nt ssDNA arms.

The target in series [3] is T1, Cdc13 full-length (Sf9). Described as above. The note with it: protein: recombinant; tags: N-terminal SUMO-His6 tag, C-terminal FLAG tag; chain copies: 2; fork 1:2, 20 bp duplex, two 25-nt ssDNA arms.
For series [4], the target named is T2, RPA heterotrimer (Rfa1-3). In words: competition; EC50; prebound labelled Poly(dT)30; text also gives 15 nM; 25 mM HEPES pH 8.0, 5% glycerol, 50 mM NaOAc, 150 mM NaCl, 7.5 mM MgCl2, 0.01% Tween 20; EMSA/DDE at 30°C; BLI without glycerol at ~23°C. The note with it: protein: recombinant; tags: untagged; copies: 1;1;1; label: none, or 5' IRDye700/800; single strand.

In series [5] the target is T2, RPA heterotrimer (Rfa1-3). Briefly: EMSA; 2 nM probe; 25 mM HEPES pH 8.0, 5% glycerol, 50 mM NaOAc, 150 mM NaCl, 7.5 mM MgCl2, 0.01% Tween 20; EMSA/DDE at 30°C; BLI without glycerol at ~23°C. The settings on record: protein: recombinant, tags: untagged, copies: 1;1;1, single strand.
In series [6] the target is T1, Cdc13 full-length (Sf9). The series is described as above. The settings on record: protein: recombinant; tags: N-terminal SUMO-His6 tag, C-terminal FLAG tag; chain copies: 2; label: none, or 5' IRDye700/800; single strand.
Series [7] addresses T1, Cdc13 full-length (Sf9). In words: competition; EC50; prebound IR700-Tel30G 2 nM; 25 mM HEPES pH 8.0, 5% glycerol, 50 mM NaOAc, 150 mM NaCl, 7.5 mM MgCl2, 0.01% Tween 20; EMSA/DDE at 30°C; BLI without glycerol at ~23°C. The note with it: protein: recombinant; tags: N-terminal SUMO-His6 tag, C-terminal FLAG tag; chain copies: 2; single strand.
The target in series [8] is T2, RPA heterotrimer (Rfa1-3). In words: competition; EC50; prebound labelled Tel30G; 25 mM HEPES pH 8.0, 5% glycerol, 50 mM NaOAc, 150 mM NaCl, 7.5 mM MgCl2, 0.01% Tween 20; EMSA/DDE at 30°C; BLI without glycerol at ~23°C. The note with it: protein: recombinant; tags: untagged; copies: 1;1;1; single strand.
The target in series [9] is T2, RPA heterotrimer (Rfa1-3). In words: competition; EC50; prebound labelled Poly(dT)30; 25 mM HEPES pH 8.0, 5% glycerol, 50 mM NaOAc, 150 mM NaCl, 7.5 mM MgCl2, 0.01% Tween 20; EMSA/DDE at 30°C; BLI without glycerol at ~23°C. The settings on record: protein: recombinant; tags: untagged; copies: 1;1;1; single strand.
Series [10] has as its target T1, Cdc13 full-length (Sf9). Briefly: competition; prebound IR700-Tel11G, unlabelled Tel11G competes; EC50 only in figure; 25 mM HEPES pH 8.0, 5% glycerol, 50 mM NaOAc, 150 mM NaCl, 7.5 mM MgCl2, 0.01% Tween 20; EMSA/DDE at 30°C; BLI without glycerol at ~23°C. The note with it: protein: recombinant; tags: N-terminal SUMO-His6 tag, C-terminal FLAG tag; chain copies: 2; label: none, or 5' IRDye700; single strand.

The target of series [11] is T3, Cdc13 full-length (E. coli) (Saccharomyces cerevisiae, UniProt P32797 1-924).
T3 sequence: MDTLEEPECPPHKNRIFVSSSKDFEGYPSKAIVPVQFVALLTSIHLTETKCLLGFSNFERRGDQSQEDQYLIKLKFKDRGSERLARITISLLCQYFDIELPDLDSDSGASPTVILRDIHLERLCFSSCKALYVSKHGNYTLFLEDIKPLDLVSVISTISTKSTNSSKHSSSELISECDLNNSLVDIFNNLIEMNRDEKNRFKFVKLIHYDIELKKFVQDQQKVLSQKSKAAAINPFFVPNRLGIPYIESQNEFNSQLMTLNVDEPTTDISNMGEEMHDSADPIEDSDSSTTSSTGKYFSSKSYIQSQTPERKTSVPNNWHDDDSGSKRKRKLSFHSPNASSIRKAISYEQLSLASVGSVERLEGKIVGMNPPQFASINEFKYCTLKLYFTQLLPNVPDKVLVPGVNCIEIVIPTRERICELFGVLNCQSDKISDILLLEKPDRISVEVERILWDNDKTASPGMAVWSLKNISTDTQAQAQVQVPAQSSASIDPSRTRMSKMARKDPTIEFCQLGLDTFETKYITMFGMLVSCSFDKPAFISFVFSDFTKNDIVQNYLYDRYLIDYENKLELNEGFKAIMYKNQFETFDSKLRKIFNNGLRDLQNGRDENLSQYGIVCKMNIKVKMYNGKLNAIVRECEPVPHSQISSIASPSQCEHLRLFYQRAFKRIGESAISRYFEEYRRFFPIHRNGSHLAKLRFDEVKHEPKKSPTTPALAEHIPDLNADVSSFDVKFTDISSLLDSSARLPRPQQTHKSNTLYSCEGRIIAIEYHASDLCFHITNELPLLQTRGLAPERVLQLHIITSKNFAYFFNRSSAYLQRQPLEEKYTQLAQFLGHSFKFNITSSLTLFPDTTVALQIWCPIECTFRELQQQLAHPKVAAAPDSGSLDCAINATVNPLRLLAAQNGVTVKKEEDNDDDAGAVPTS
Described as above. The note with it: protein: recombinant; tags: N-terminal His6-SUMO, C-terminal 3xFLAG; chain copies: 2; label: none, or 5' IRDye700; single strand.

Series [12] deals with T4, Cdc13 OB3 (DBD) (Saccharomyces cerevisiae, UniProt P32797 497-694).
T4 sequence: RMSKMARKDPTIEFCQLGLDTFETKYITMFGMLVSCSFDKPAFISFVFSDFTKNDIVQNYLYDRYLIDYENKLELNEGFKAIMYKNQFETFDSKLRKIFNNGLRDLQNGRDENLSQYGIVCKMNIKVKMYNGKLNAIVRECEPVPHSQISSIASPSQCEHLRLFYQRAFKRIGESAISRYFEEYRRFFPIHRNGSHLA
In words: EMSA; 7.5 nM OB3, 2 nM IR700-Tel11G; complex stable to 0.4-50 nM unlabelled Tel11G; 25 mM HEPES pH 8.0, 5% glycerol, 50 mM NaOAc, 150 mM NaCl, 7.5 mM MgCl2, 0.01% Tween 20; EMSA/DDE at 30°C; BLI without glycerol at ~23°C. The settings on record: protein: recombinant; tags: N-terminal His6; label: none, or 5' IRDye700; single strand.

In series [13] the target is T5, Cdc13 OB1 (Saccharomyces cerevisiae, UniProt P32797 1-230).
T5 sequence: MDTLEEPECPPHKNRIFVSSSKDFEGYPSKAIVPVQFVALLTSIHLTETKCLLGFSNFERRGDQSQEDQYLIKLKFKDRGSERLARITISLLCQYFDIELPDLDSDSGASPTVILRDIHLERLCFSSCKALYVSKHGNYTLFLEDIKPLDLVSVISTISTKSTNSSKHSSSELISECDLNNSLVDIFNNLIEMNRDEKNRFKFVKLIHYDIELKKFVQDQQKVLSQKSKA
In words: EMSA; 7.8-1000 nM OB1; 25 mM HEPES pH 8.0, 5% glycerol, 50 mM NaOAc, 150 mM NaCl, 7.5 mM MgCl2, 0.01% Tween 20; EMSA/DDE at 30°C; BLI without glycerol at ~23°C. The note with it: protein: recombinant; tags: N-terminal His6-SUMO, C-terminal 3xFLAG; chain copies: 2; label: 5' IRDye700 or IRDye800; single strand.

Series [14] deals with T1, Cdc13 full-length (Sf9). Briefly: EMSA; 2 nM probe; near probe concentration, not a reliable Kd; 25 mM HEPES pH 8.0, 5% glycerol, 50 mM NaOAc, 150 mM NaCl, 7.5 mM MgCl2, 0.01% Tween 20; EMSA/DDE at 30°C; BLI without glycerol at ~23°C. The note with it: protein: recombinant; tags: N-terminal SUMO-His6 tag, C-terminal FLAG tag; chain copies: 2; label: 5' IRDye700 or IRDye800; single strand.

T2 sequence (P22336 whole entry, chain 1 of 3): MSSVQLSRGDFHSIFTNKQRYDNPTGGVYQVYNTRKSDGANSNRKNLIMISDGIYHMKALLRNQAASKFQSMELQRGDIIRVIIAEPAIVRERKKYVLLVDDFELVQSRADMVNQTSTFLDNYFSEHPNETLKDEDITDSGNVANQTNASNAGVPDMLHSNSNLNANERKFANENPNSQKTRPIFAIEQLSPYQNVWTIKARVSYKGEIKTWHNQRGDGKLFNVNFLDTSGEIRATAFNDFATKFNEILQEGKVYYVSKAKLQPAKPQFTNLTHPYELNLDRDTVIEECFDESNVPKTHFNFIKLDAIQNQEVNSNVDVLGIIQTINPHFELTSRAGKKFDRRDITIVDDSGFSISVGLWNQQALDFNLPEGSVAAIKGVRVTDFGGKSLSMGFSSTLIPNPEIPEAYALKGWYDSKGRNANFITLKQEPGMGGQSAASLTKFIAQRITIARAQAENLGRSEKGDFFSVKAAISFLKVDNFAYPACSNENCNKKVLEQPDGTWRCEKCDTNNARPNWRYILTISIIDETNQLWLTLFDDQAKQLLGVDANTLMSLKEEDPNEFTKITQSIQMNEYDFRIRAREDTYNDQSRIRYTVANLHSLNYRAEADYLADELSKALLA
T2 sequence (P26754 whole entry, chain 2 of 3): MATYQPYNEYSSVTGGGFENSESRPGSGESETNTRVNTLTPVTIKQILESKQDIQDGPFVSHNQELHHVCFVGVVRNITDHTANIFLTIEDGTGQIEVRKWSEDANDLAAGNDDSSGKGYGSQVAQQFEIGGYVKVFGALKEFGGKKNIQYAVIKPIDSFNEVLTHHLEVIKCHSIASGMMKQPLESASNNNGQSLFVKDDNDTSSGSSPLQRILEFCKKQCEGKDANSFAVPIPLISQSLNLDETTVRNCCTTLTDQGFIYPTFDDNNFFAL
T2 sequence (P26755 whole entry, chain 3 of 3): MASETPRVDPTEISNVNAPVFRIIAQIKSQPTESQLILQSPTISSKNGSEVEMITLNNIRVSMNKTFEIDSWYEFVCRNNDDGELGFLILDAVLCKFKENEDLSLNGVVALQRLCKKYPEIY

Regarding GTGTGGGTGTGGTGTGGGTGTGGTGTGGGTGTGTGGTGTGGTGTGTGTG (ssDNA) [IR700-Tel50G (MB1931)], the binding result in [1] is given as “binds”.

B1: Tel25G fork (MB1169/MB1170) (mixed)
DNA 1: GGTGTGGTGTGGGTGTGGTGTGGGTGTGTCACTCACATAGCGTTC
DNA 2: GAACGCTATGTGAGTGACACTGGGTGTGGTGTGGGTGTGGTGTGG
With B1, the results for the “apparent K (half saturation)” value in [2] and in series [3] were 2.5 ± 0.6 nM and 3.3 ± 0.5 nM, respectively.

On to TTTTTTTTTTTTTTTTTTTTTTTTTTTTTT (ssDNA) [Poly(dT)30 (MB464 / MB1755 IR700 / MB1982 IR800)], for which the IC50 in series [4] stood at 15.1 nM. In addition, the “apparent K (half saturation)” value in series [5] (label: none, or 5' IRDye700/800) was 7 ± 0.5 nM; in series [6], 26 ± 3 nM.

As for GTGTGGGTGTGGTGTGGGTGTGGTGTGGGTGTGTGGGTGTGGTGTGGGTG (ssDNA) [Tel50G unlabelled (MB1117)], the half-maximal inhibitory concentration (IC50) in series [7] turned out to be 0.96 nM.

For the molecule GTGTGGGTGTGGTGTGGGTGTGGTGTGGGT (ssDNA) [Tel30G unlabelled (MB915)], the figures for the 50% inhibitory concentration (IC50) in series [7], in series [8] and in series [9] were 0.89 nM, 5.44 nM and 5.1 nM, respectively.

Regarding GTGTGGGTGTG (ssDNA) [Tel11G (MB1983 / MB2018 IR700)], the binding result in series [10], in series [11] and in series [12] was “binds” throughout.

Regarding CGCCATGCTGATCCGTGTGGTGTGTGTGGG (ssDNA) [Tel30G labelled (MB1930 IR700 / MB1981 IR800)], the figures for the “apparent K (half saturation)” value in series [13], in [14] and in series [5] (label: 5' IRDye700 or IRDye800) were 830 nM, 3.7 ± 0.3 nM and 2.4 ± 0.5 nM, respectively.
